Measurements: the DeepSol protein solubility set

Experiment: soluble on expression in E. coli; label from the status in PepcDB or PDB records

Soluble on expression in E. coli, not soluble:
MLDTDTITFVNCMHEYICEMDSYPKMNTEIINFESDALRDNYLGDEFRRQILVYTPDSMTDSYPLMIELAGTNWKPRLHNKFANIVEKLFSQGLKAVIANPNFSTKYNINQYINSPAVGNYEDFIITEIVPYLRERYRTGKTALFGKSSGGFGSYTLAVRHPEVINGFADHFGDSCFFYLYADDFAYTYNMLQKYKKSELIEHLLSKRPTDEEMRALNVFGSSAFYSPDLNDPSGFDLPFDENTGEIKENVWSRWKQLDPVKNVKQNLDALKKLDAVYLDVGDSDEYRLYIGSRSLHNKLLEGGIEHHYEEFHGGHFGNSERYLVSLPYLYDALRVKE, MGSDKIHHHHHHAATLLASCNKDEEETEIQGFKVLEYRPAPGQFINEGFDCQTMEEANAYAEERFNKKLYVSLGSFGGYITVKMPKEIKNRKGYDFGIIGNPFSGSSEPGIVWVSEDANGNGKADDVWYELKGSDEPERDYSVTYHRPDAAGDIPWEDNKGESGIIKYLPQYHDQMYYPNWIKEDSYTLKGSMLEARTEQEGGIWKNKDFGKGYADNWGSDMAKDDNGNYRYNQFDLDDAVDQNGNPVTLERIHFVKVQSAILKNVESIGEVSTEVVGFKAF, MGSDKIHHHHHHMERHTVNEIEIFTIPFDKARTISCAFLIKKGSAHEPEELAGISHFIEHMAFRGTKSYDHFSLKYTVEVVGGTLNAFTDKLATAYYAKVPEFHFGKTLNVLKEITFYPIFSPEDTEIERKIILEEYKMSQDDPTSKLFDTLVETVWPGPYGRPIIGRKETIEKISSEDLREYHRKNYNLPDTKIILAGKVNDDYLSLLEKELSELERNKPGDPLPPPPSFEHTEPRYIVRNDLEQVHIAMARPICGRISEDIYPLYALNTALGSGMSSILFHEIREKEGFVYDVFSQIYALKETGIIIVYAALSPEKIDEFFSKMKDVLSNESLFMKNFEYGKMRYLGKLDMVTDNPAGMMSFVIDDLSNDSLETIEERVERIKNVSKEDYRRAYERFIAGNWSVFGIGPESGKIIEKHEMIV

Soluble on expression in E. coli, soluble:
MIPAEIAKTAFKSLLPVLERGVVAADRAFSGYIQPRRLRGKLLLQPYVGWGTPREVELTGRVLLPRALAPARKGDPRWRNFHNIVRRLFSREVGGVRVAGTLSDQTVSAVSDSDGYFTLHFTFPRPIAAGWHEVRLQMEDRQEDAARARVQVVGKARFGIISDLDDTVIQSDVTSLPRMLMTSLTGNARTRSPFPGVGALYRALTREGEARNPIFYVSSSPWNFFDLLWQFLDYRRIPLGPLFLRNWGMDLLGGHGGYKHGVIERIFHRYPNLNFVLVGDSGEKDPEIYAEVVRRFPGRVLAVYIRDVTGAERDEGVLRLREEIRKAGADLVLASDSLSAAGHALALGLITPGEYRSVLTSVARTYETLEHHHHHH, MAKKDEVGGRVLQDVFLDWAKKYGPVVRVNVFHKTSVIVTSPESVKKFLMSTKYNKDSKMYRALQTVFGERLFGQGLVSECNYERWHKQRRVIDLAFSRSSLVSLMETFNEKAEQLVEILEAKADGQTPVSMQDMLTYTAMDILAKAAFGMETSMLLGAQKPLSQAVKLMLEGITASRNTLAKFLPGKRKQLREVRESIRFLRQVGRDWVQRRREALKRGEEVPADILTQILKAEEGAQDDEGLLDNFVTFFIAGHETSANHLAFTVMELSRQPEIVARLQAEVDEVIGSKRYLDFEDLGRLQYLSQVLKESLRLYPPAWGTFRLLEEETLIDGVRVPGNTPLLFSTYVMGRMDTYFEDPLTFNPDRFGPGAPKPRFTYFPFSLGHRSCIGQQFAQMEVKVVMAKLLQRLEFRLVPGQRFGLQEQATLKPLDPVLCTLRPRGWQPAPPPPPCHHHH, MSLRQVIPIPSPPAKYLLPEVTVLDYGKKCVVIDLDETLVHSSFKPISNADFIVPVEIDGTIHQVYVLKRPHVDEFLQRMGQLFECVLFTASLAKYADPVADLLDRWGVFRARLFRESCVFHRGNYVKDLSRLGRELSKVIIVDNSPASYIFHPENAVPVQSWFDDMTDTELLDLIPFFEGLSREDDEGHHHHHH
